This assay concerns the target T1, human Thyroid Stimulating Hormone Receptor (TSHR), expressed on transfected or transduced cells (human, UniProt P16473 21-764).
T1 construct: also called Hu-TSHR; human TSHR
Nature of the assay: flow cytometry on HEK-293T cells transfected with TSHR expression vectors. A general note: In flow cytometry, cells or beads pass a laser one at a time.

Experimental: Flow Cytometry. Flow cytometry was performed to assess specific binding of TSHR and HER2 bispecific antibodies or to quantify their membrane expression. […] For flow analysis cells were harvested using 0.02% EDTA in phosphate-buffered saline (PBS). […] After washing, cells were captured using a BD LSRFortessa (BD Biosciences). Cells stained with DAPI (1 μg/mL) were excluded. Cytometric analysis was performed using FlowJo (V10.6; FlowJo) to obtain median fluorescence intensity (MFI) or to quantify molecules per cell using QuantiBRITE PE reference beads (BD Biosciences).

B1: K1-70/CD3 T-BsAb (anti-TSHR x anti-CD3 bispecific antibody, IgG-[L]-scFv 2+2 format) (bispecific antibody)
light: QSVLTQPPSVSAAPGQKVTISCSGSSSDIGSNYVSWYQQFPGTAPKLLIYDNNKRPSAIPDRFSGSKSGTSATLGITGLQTGDEADYYCGTWDSRLGIAVFGGGTQLTVLGQPKAAPSVTLFPPSSEELQANKATLVCLISDFYPGAVTVAWKADSSPVKAGVETTTPSKQSNNKYAASSYLSLTPEQWKSHRSYSCQVTHEGSTVEKTVAPTECTSGGGGSGGGGSGGGGSQVQLVQSGGGVVQPGRSLRLSCKASGYTFTRYTMHWVRQAPGKCLEWIGYINPSRGYTNYNQKFKDRFTISRDNSKNTAFLQMDSLRPEDTGVYFCARYYDDHYSLDYWGQGTPVTVSSGGGGSGGGGSGGGGSGGGGSGGGGSGGGGSDIQMTQSPSSLSASVGDRVTITCSASSSVSYMNWYQQTPGKAPKRWIYDTSKLASGVPSRFSGSGSGTDYTFTISSLQPEDIATYYCQQWSSNPFTFGCGTKLQITR
heavy: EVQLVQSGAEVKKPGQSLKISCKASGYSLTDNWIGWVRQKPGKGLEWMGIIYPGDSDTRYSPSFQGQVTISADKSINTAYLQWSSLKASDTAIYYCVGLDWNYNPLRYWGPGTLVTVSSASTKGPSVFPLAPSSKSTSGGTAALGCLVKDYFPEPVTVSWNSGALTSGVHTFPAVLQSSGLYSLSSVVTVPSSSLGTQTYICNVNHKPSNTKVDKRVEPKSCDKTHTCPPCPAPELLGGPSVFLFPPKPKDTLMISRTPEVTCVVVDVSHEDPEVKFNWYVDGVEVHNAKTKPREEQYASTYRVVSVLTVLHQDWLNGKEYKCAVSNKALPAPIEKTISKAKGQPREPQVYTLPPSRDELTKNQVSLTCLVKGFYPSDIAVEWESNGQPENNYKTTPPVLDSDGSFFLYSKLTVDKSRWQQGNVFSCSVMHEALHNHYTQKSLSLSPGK
notes: also called K1-70/CD3 BsAb; K1-70-TSHR/CD3
Regarding B1, the binding result is “binds”.

B2: M22/CD3 T-BsAb (anti-TSHR x anti-CD3 bispecific antibody, IgG-[L]-scFv 2+2 format) (bispecific antibody)
light: LTVLTQPPSVSGAPRQRVTISCSGNSSNIGNNAVNWYQQLPGKAPKLLIYYDDQLPSGVSDRFSGSRSGTSASLAIRGLQSEDEADYYCTSWDDSLDSQLFGGGTRLTVLGQPKAAPSVTLFPPSSEELQANKATLVCLISDFYPGAVTVAWKADSSPVKAGVETTTPSKQSNNKYAASSYLSLTPEQWKSHRSYSCQVTHEGSTVEKTVAPTECTSGGGGSGGGGSGGGGSQVQLVQSGGGVVQPGRSLRLSCKASGYTFTRYTMHWVRQAPGKCLEWIGYINPSRGYTNYNQKFKDRFTISRDNSKNTAFLQMDSLRPEDTGVYFCARYYDDHYSLDYWGQGTPVTVSSGGGGSGGGGSGGGGSGGGGSGGGGSGGGGSDIQMTQSPSSLSASVGDRVTITCSASSSVSYMNWYQQTPGKAPKRWIYDTSKLASGVPSRFSGSGSGTDYTFTISSLQPEDIATYYCQQWSSNPFTFGCGTKLQITR
heavy: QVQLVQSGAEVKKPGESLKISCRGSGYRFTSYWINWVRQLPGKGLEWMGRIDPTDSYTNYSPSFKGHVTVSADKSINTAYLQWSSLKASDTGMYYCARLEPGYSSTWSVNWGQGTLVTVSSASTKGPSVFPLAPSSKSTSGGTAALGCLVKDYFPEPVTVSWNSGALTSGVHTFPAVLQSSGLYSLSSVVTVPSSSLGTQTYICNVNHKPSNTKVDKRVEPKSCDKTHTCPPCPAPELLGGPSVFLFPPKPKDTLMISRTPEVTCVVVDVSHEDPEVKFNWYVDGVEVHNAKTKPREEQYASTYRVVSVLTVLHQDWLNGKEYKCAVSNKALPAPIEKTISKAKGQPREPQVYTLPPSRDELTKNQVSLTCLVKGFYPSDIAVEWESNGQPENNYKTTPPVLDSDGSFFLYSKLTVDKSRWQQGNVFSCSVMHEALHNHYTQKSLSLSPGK
notes: Expressed in Expi-CHO cells and purified on protein A; also called M22/CD3 BsAb; M22-TSHR/CD3
Take B2: the binding result is recorded as “binds”.

The values are drawn from patent US20240415888A1 (Memorial Sloan Kettering, published 2024).
